In the supplement of paper PMC11780869:

System: Bacillus subtilis
Test: cleaved RNA product abundance (RNA/gDNA barcode ratio) relative to median wild-type variant (ratio to wild type); higher = more accumulation of the downstream cleavage product
Procedure, shortened: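 Oligos with a 9% error rate were used to build barcoded, mutagenized RNase Y cleavage-site windows within truncated aprE or tetM reporter mRNAs, which were integrated into the B. subtilis chromosome. Cultures were grown in LB at 37°C between OD600 0.0003 and 0.3. Cleaved RNA was gel-selected, reverse transcribed and barcode-sequenced, as were genomic DNA barcodes, and UMIs were collapsed. Cleaved product abundance is the scaled RNA:gDNA barcode ratio, with the median construct carrying the unmutated site as reference.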

[1] = experiment (reporter, strain, medium): exp 8a: truncated aprE reporter, strain BJT201 with 2% xylose (RNase J1 expressed), cleavage site: glnRA (positions -5 to +31 mutated)
[2] = experiment (reporter, strain, medium): exp 2b: truncated aprE reporter, strain BJT200, cleavage site: cggR-gapA (positions -7 to +36 mutated)
[3] = experiment (reporter, strain, medium): exp 4a: truncated aprE reporter, strain BJT201 with 2% xylose (RNase J1 expressed), cleavage site: cggR-gapA (positions -7 to +36 mutated)

## CGACATGTCCCGCTTCTTTCATTAATCCGTTAGCAACTGTTTTGCTATATCCATTTACCTTTTAAGAGGAGGAAT
[1]
  cleaved RNA product abundance: 0.167

## ACAGACGAAGGAGCCGCAAAGAAGTTATTAAGGGATAAATATTCCCTCAATATAAATATCTCTCACTTATTTAAA
[2]
  cleaved RNA product abundance: 0.755
[3]
  cleaved RNA product abundance: 1.01

## ACAGACGAAGGAGCCGCAAACAAGTTATTAAGGGATGAATAATCCCTCCATATAAATATCTCTCACTTATTTAAA
[3]
  cleaved RNA product abundance: 0.207

## ACAGACGAAGGAGCCGCAAAGAAGTTATTAAGGGATGAATTATCCCTCTATATAAATATCTCTCACTTATTTAAA
[3]
  cleaved RNA product abundance: 0.3

## ACAGACGAAGGAGCCGCAAACAAGTAATTAAGGGATGAATAATCCCTCAATATAAATATCTCTCACTTATTTAAA
[2]
  cleaved RNA product abundance: 0.177
[3]
  cleaved RNA product abundance: 0.214

## ACAGACGAAGGAGCCGCAAAGAAGTTATTAAGGAATGAATAATCCCTCAATATAAAAAACTCTCACTTATTTAAA
[3]
  cleaved RNA product abundance: 0.0884

## ACAGACGAAGGAGCCGCAAAGAAGTTATTAAAGGATGAATAATCCCTCACTATAAATATCTCTCACTTATTTAAA
[2]
  cleaved RNA product abundance: 0.113
[3]
  cleaved RNA product abundance: 0.152

## ACAGACGAAGGAGCCGCAAAGAAGTTCTTAAAGGATGAATAATCCCTCAATATAAATATCTCTCACTTATTTAAA
[3]
  cleaved RNA product abundance: 0.112

## CGACATGTCCCGCTTCTTTCATTAATCCGTTAGCAACTGTCTTGCTATATACATTTACCTTTTAAGAGGAGGAAT
[1]
  cleaved RNA product abundance: 0.849

## ACAGACGAAGGAGCCGCAAAGAAGTTGTTAAGAGATGAATAATCCCTCAATATAAATATCTCTCACTTATTTAAA
[3]
  cleaved RNA product abundance: 0.103

## ACAGACGAAGGAGCCGCAAATAAGTTATTAAGGGATGAATAATCCCCCAATATAAATATCTCTCACTTATTTAAA
[3]
  cleaved RNA product abundance: 0.23

## CGACATGTCCCGCTTCTTTCATTAATTCGTTAGCAACTGTTTTGCTATATACATTTACCTTTTAAGAGGAGGAAT
[1]
  cleaved RNA product abundance: 1.11

## ACAGACGAAGGAGCCGCAAAGAAGTTATAAAGGGATGAATAATCACTCAATATAAATATCTCTCACTTATTTAAA
[2]
  cleaved RNA product abundance: 0.107
[3]
  cleaved RNA product abundance: 0.169

## CGACATGTCCCGCTTCTTTCATTAATCCGTTAGCAACTGTTTTGCTATATACAATTATCTTTTAAGAGGAGGAAT
[1]
  cleaved RNA product abundance: 0.873

## CGACATGTCCCGCTTCTTTCATTATTCCGTTAGCAACTGTTGTGCTATATACATTTACCTTTTAAGAGGAGGAAT
[1]
  cleaved RNA product abundance: 0.941

## ACAGACGAAGGAGCCGCTAAGAAGTTATTAAGGGACGAATAATCCCTCAATATAAATATCTCTCACTTATTTAAA
[3]
  cleaved RNA product abundance: 0.573

## CGACATGTCCCGCTTCTTTCATTAATCCGTTAGCAACTGTTTTGCTATATACATTTATCTTTTAAGAGGAGGAAT
[1]
  cleaved RNA product abundance: 1.27

## ACAGACGAAGGAGCCGCAAAGAAGTTCTTAAGGGATGAATAATCCCTCAATATAAAAATCTCTCACTTATTTAAA
[2]
  cleaved RNA product abundance: 0.181

## ACAGACGAAGGAGCCGCAAAGAACTTATTAAGGGATGAATAATCCCACAATATAAATATCTCTCACTTATTTAAA
[2]
  cleaved RNA product abundance: 0.207
[3]
  cleaved RNA product abundance: 0.292

## ACAGACGAAGGAGCCGCAAAGTAGTTATTAAGAGATGAATAATCCCTCAATATAAATATCTCTCACTTATTTAAA
[2]
  cleaved RNA product abundance: 0.126
[3]
  cleaved RNA product abundance: 0.124

## CGACATGTCCCGCTTCTTTCATTACTACGTTAGCAACTGTTTTGCTATATACATTTACCTTTTAAGAGGAGGAAT
[1]
  cleaved RNA product abundance: 2.07

## ACAGACGAAGGAGCCGCAAAGAAGTTATCAAGGGATGAATAAACCCTCAATATAAATATCTCTCACTTATTTAAA
[2]
  cleaved RNA product abundance: 0.148
[3]
  cleaved RNA product abundance: 0.205

## CGACATGTCCCGCTTCTTTCATTAAACCGTGAACAACTGTGTTGCAATATACATGTACCTTTTAAGAGGAGGAAT
[1]
  cleaved RNA product abundance: 0.222

## CGACATGTCCCGCTTCTTTCATTAATCGGTTAGCAACTGTTTTGCAATATACATTTACCTTTTAAGAGGAGGAAT
[1]
  cleaved RNA product abundance: 0.349

## CGACATGTCCCGCTTCTTTCATTAATCCGTTAGCAACTGTTTTGCTATATACATATACTTTTTAAGAGGAGGAAT
[1]
  cleaved RNA product abundance: 0.975

## ACAGACGAAGGAGCCGCAAAGAAGTTATTAAGGGATTAATAATCGCTCAATATAAATATCTCTCACTTATTTAAA
[2]
  cleaved RNA product abundance: 0.109
[3]
  cleaved RNA product abundance: 0.0904

## ACAGACGAAGGAGCCGCAAAGTAGTTATTAAGGGATGGATAATCCCTCAATATAAATATCTCTCACTTATTTAAA
[3]
  cleaved RNA product abundance: 0.537

## ACAGACGAAGGAGCCGCAAAGAAGGTATTAAGAGATGAATAATCCCTCAATATAAATATCTCTCACTTATTTAAA
[3]
  cleaved RNA product abundance: 0.171

## ACAGACGAAGGAGCCGCAATGAAGTCATTAAGGGATGAATAATCCCTCAATATAAATATCTCTCACTTATTTAAA
[2]
  cleaved RNA product abundance: 0.189

## ACAGACGAAGGAGCCGCTAAGAAGTTATTAAGGGATGAATAACCCCTCAATATAAATATCTCTCACTTATTTAAA
[3]
  cleaved RNA product abundance: 0.437

## ACAGACGAAGGAGCCGCAAACAAGTTATTAAGAGATGAATAATCACTCAATATAAATATCTCTCACTTATTTAAA
[2]
  cleaved RNA product abundance: 0.106
[3]
  cleaved RNA product abundance: 0.126

## CGACATGTCCCGCTTCTTTCATTAATCCTTAGCACCTGTTTTGCTATATACATTATCCTTTTAAGAGGAGGAATT
[1]
  cleaved RNA product abundance: 0.144

## ACAGACGAAGGAGCCGCAAAGAAGTTATAAAGGGCTGAATAATCCCTCAATATAAATATCTCTCACTTATTTAAA
[3]
  cleaved RNA product abundance: 0.286

## ACAGACGAAGGAGCCGCAAAGAAGTTATTCAGGGATGAATAATCCCCCAAAATAAATATCTCTCACTTATTTAAA
[3]
  cleaved RNA product abundance: 0.165

## CGACATGTCCCGCTTCTTTCATTAATCCGTTAGCAATTGTTTTGCTATATAGATTTACCTTTTAAGAGGAGGAAT
[1]
  cleaved RNA product abundance: 1.51

## ACAGACGAAGGAGCCGCAAAGAAGTTATTAAGGGATGAATAATCCTTCAATTTAAATATCTCTCACTTATTTAAA
[2]
  cleaved RNA product abundance: 0.144
[3]
  cleaved RNA product abundance: 0.138

## CGACATGTCCCGCTTCTTTCATTAATTCGTTAGCAACTGTATTGCAATATACATTTACCTTTTAAGAGGAGGAAT
[1]
  cleaved RNA product abundance: 0.329

## ACAGACGAAGGAGCCGCAAAGAAGTCATTAAGGGATGAATAATCCCTCAATATAAATAACTCTCACTTATTTAAA
[3]
  cleaved RNA product abundance: 0.249

## ACAGACGAAGGAGCCGCAAAGAAATTATTAAGGGATGAATAATCGCTCAATATAAATATCTCTCACTTATTTAAA
[3]
  cleaved RNA product abundance: 0.101

## CGACATGTCCCGCTTCTTTCATTAATTCGTTAGCAACTGTTTTGCTATATTCATTTACCTTTTAAGAGGAGGAAT
[1]
  cleaved RNA product abundance: 0.627

## ACAGACGAAGGAGCCGCAAAGAAGTTATTAAGGTTTGAATAATCCCTCAATATAAATATCTCTCACTTATTTAAA
[2]
  cleaved RNA product abundance: 0.102
[3]
  cleaved RNA product abundance: 0.144

## ACAGACGAAGGAGCCGCAAAGAAGTTATTAAGGGATGAATAATCCCTCAAAAAAAATATCTCTCACTTATTTAAA
[3]
  cleaved RNA product abundance: 0.0713

## ACAGACGAAGGAGCCGCAAAGAAGTTATTAAGGGATAAATAATCCCTGAATATAAATATCTCTCACTTATTTAAA
[3]
  cleaved RNA product abundance: 0.734

## ACAGACGAAGGAGCCGCAAAGAATTTATTACGGGATGAATAATCCCTCAATATAAATATCTCTCACTTATTTAAA
[2]
  cleaved RNA product abundance: 0.303
[3]
  cleaved RNA product abundance: 0.37

## ACAGACGAAGGAGCCGCAAAGAAGTTATTTAAGGATGAATAATCCCTCAATATAAATATCTCTCACTTATTTAAA
[2]
  cleaved RNA product abundance: 0.125
[3]
  cleaved RNA product abundance: 0.182

## ACAGACGAAGGAGCCGCAAAGAAGTAATTAAGGAATGAATAATCCCTCAATATAAATATCTCTCACTTATTTAAA
[2]
  cleaved RNA product abundance: 0.0931
[3]
  cleaved RNA product abundance: 0.0879

## CGACATGTCCCGCTTCTTTCATTAATCCGTTAGCAACTGTTTTACAATATACATTTACCTTTTAAGAGGAGGAAT
[1]
  cleaved RNA product abundance: 0.534

## ACAGACGAAGGAGCCGCAAAGAAGTTATTAAGGGATGAATAATCCTTCAATAAAAATATCTCTCACTTATTTAAA
[2]
  cleaved RNA product abundance: 0.185

## CGACATGTCCCGCTTCTTTCATTAATCCGTTAGAAACTGTTTTGCTATATTCATTTACCTTTTAAGAGGAGGAAT
[1]
  cleaved RNA product abundance: 0.268

## ACAGACGAAGGAGCCGCAAGGAAGTAATTAAGGGATGAATAATCCCTCAATATAAATATCTCTCACTTATTTAAA
[3]
  cleaved RNA product abundance: 0.182

## CGACATGTCCCGCTTCTTTCATTAATCCTTAAGCAACTGTTTTGCTATATACATTTACCTTTTAAGAGGAGGAAT
[1]
  cleaved RNA product abundance: 0.419

## ACAGACGAAGGAGCCGCAAAGAAGTTATTAAGGGATGAATAATCACTCAATCTAAATATCTCTCACTTATTTAAA
[3]
  cleaved RNA product abundance: 0.0379

## ACAGACGAAGGAGCCGCAAAGAAGTTATTAAGGGATGAATATTCCATCAATATAAATATCTCTCACTTATTTAAA
[2]
  cleaved RNA product abundance: 0.141
[3]
  cleaved RNA product abundance: 0.312

## ACAGACGAAGGAGCCGCAAAGAAGTTATTAAGGGATAAATAATCCCCCAATATAAATATCTCTCACTTATTTAAA
[3]
  cleaved RNA product abundance: 0.22

## ACAGACGAAGGAGCCGCAAAGAAGTTCTTAAGGGATGAAGAATCCCTCAATATAAATATCTCTCACTTATTTAAA
[2]
  cleaved RNA product abundance: 0.14
